# Patent EP4671274A1
# Molecular target: recombinant His-tagged canine interleukin-13 (cIL-13) (canine) (UniProt Q9N0W9)
# Assay: cell-based or functional assay
# Sequence of recombinant His-tagged canine interleukin-13 (cIL-13) (canine) (Q9N0W9 other isoform, or with tags, fused parts or gaps): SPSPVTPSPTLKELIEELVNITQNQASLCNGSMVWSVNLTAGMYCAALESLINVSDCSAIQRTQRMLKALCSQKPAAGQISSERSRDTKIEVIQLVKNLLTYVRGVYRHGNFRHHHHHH
binder,measurement,value
"mouse monoclonal antibody 32A10-#20 (antibody, from another filing, V domains shown) VH: EVQLQQSGPELVKPGASVKVSCKTSGYSFTDYPIYWVRQSHGESLEWIGYIDPYNGGTTYNQNFKDKATLTVDKSSSTAFMHLNSLTSEDSAVYFCATAVVATDVMENWGQGTSVTVSS VL: DIVLTQSQKFMSTSVGDRVSITCKASQNVRNAVAWFQQKPGQSPKALIYLASNRYTGVPDHFTGSGSGTDFTLTISNVQSEDLADYFCLQHWNYPLTFGAGTKLELK",IL-13-dependent TF-1 cell proliferation inhibition IC50,2.9 to 4.2 nM
same,"Inhibitory Activity on TF-1 Cell Proliferation, IC50",3.97 nM
